Source: the Immune Epitope Database (IEDB)
pIC50: −log10 of the molar value.

Assays:
HLA-A*02:01 [1] = test: IEDB peptide-MHC binding, cellular MHC/competitive/fluorescence; ≥ and ≤ were set here for values at or beyond the usual limits of such assays; conditions: source organism: Vaccinia virus WR
HLA-A*02:02 = test: IEDB peptide-MHC binding, purified MHC/competitive/radioactivity; ≥ and ≤ were set here for values at or beyond the usual limits of such assays
HLA-A*68:02 = test: as above
HLA-A*02:06 = test: as above
HLA-A*02:03 = test: as above
HLA-A*02:01 [2] = test: as above
[3] = source organism: Vaccinia virus WR
[4] = source organism: Hepacivirus hominis
[5] = source organism: Influenza A virus
[6] = source organism: Mammarenavirus machupoense

Row | Sequence | pIC50 (HLA-A*02:01 [1]) | pIC50 (HLA-A*02:02; [3]) | pIC50 (HLA-A*68:02; [3]) | pIC50 (HLA-A*02:06; [3]) | pIC50 (HLA-A*02:03; [3]) | pIC50 (HLA-A*02:01 [2]; [3]) | other results
1 | TTNNLLEQL | 4.39 | 6.91 | 7.32 | 5.52 | 5.85 |  | 
2 | SAEVERLMEL | 5.10 | 5.89 | 5.58 | 5.90 | 5.60 |  | 
3 | SIMSMMNIT | 5.15 | 5.30 | 5.63 | 5.75 | 6.17 |  | 
4 | STFNMWREIL | 5.22 | 5.51 | 7.17 | 5.47 | 6.04 |  | 
5 | TITTFIPISA | 5.01 | 5.39 | 6.52 | 5.32 | 6.75 |  | 
6 | ETMYLTMKAI | 5.18 | 5.88 | 8.40 | 5.45 | 7.60 |  | 
7 | RQDYRRSINV | 4.99 | 6.00 | 5.40 | 5.65 | 6.43 |  | 
8 | ELAYYNSCML | 4.90 | 5.73 | 6.19 | 5.45 | 6.82 |  | 
9 | SIRCVKYLL | 5.11 | 6.97 | 6.61 | 5.54 | 7.25 |  | 
10 | NIKISLNEIL | 5.02 | 6.15 | 5.79 | 6.25 | 5.86 |  | 
11 | KTVKNVDII | 5.06 | 6.22 | 5.93 | 6.16 | 5.75 |  | 
12 | MILMTHFFSI |  |  |  |  |  |  | pIC50 (HLA-A*02:01 [2]; [4]): 6.57; pIC50 (HLA-A*02:02; [4]): 6.38; pIC50 (HLA-A*68:02; [4]): 6.05; pIC50 (HLA-A*02:06; [4]): 6.51; pIC50 (HLA-A*02:03; [4]): 5.95
13 | NMDWRSLTQV |  | 7.00 | 6.08 | 8.77 | 7.77 | 8.38 | 
14 | NASKFVYVSV |  | 5.34 | 7.00 | 6.08 | 8.07 | 6.00 | 
15 | MLNRVQILM |  | 8.32 | 5.38 | 5.59 | 7.57 | 7.55 | 
16 | IVILFIMFM |  | 5.73 | 6.18 | 6.13 | 5.77 | 6.24 | 
17 | VLVGGVLAAL |  |  |  |  |  |  | pIC50 (HLA-A*02:01 [2]; [4]): 7.22; pIC50 (HLA-A*02:02; [4]): 7.96; pIC50 (HLA-A*68:02; [4]): 6.82; pIC50 (HLA-A*02:06; [4]): 6.85; pIC50 (HLA-A*02:03; [4]): 8.30

Row | Sequence | pIC50 (HLA-A*02:01 [1]) | pIC50 (HLA-A*02:02; [3]) | pIC50 (HLA-A*68:02; [3]) | pIC50 (HLA-A*02:06; [3]) | pIC50 (HLA-A*02:03; [3]) | pIC50 (HLA-A*02:01 [2]; [3]) | other results
18 | SCINRCFYV |  |  |  |  |  |  | pIC50 (HLA-A*02:01 [2]; [5]): 6.53; pIC50 (HLA-A*02:02; [5]): 6.09; pIC50 (HLA-A*68:02; [5]): 5.97; pIC50 (HLA-A*02:06; [5]): 6.65; pIC50 (HLA-A*02:03; [5]): 6.02
19 | KQYDSTDFKM |  | 8.08 | 5.45 | 6.97 | 5.48 | 6.51 | 
20 | ALYKGFQFI |  |  |  |  |  |  | pIC50 (HLA-A*02:01 [2]; source organism: SARS-CoV1): 8.28; pIC50 (HLA-A*02:02; source organism: SARS-CoV1): 9.28; pIC50 (HLA-A*68:02; source organism: SARS-CoV1): 5.35; pIC50 (HLA-A*02:06; source organism: SARS-CoV1): 8.70; pIC50 (HLA-A*02:03; source organism: SARS-CoV1): 8.48
21 | TVGMSIVCIV |  | 6.28 | 6.66 | 6.70 | 6.33 | 6.28 | 
22 | HILHAYCGI |  | 6.91 | 6.84 | 6.44 | 7.18 | 5.83 | 
23 | TIKESLLKET |  | 5.80 | 6.53 | 7.06 | 6.83 | 7.07 | 
24 | LLLEWLAEV |  |  |  |  |  |  | pIC50 (HLA-A*02:01 [2]; source organism: SARS-CoV1): 9.66; pIC50 (HLA-A*02:02; source organism: SARS-CoV1): 9.96; pIC50 (HLA-A*68:02; source organism: SARS-CoV1): 6.47; pIC50 (HLA-A*02:06; source organism: SARS-CoV1): 9.96; pIC50 (HLA-A*02:03; source organism: SARS-CoV1): 9.20
25 | AIFNNRNLAA |  | 6.35 | 5.54 | 6.11 | 6.99 | 5.88 | 
26 | RAAIDRQVSV |  | 6.20 | 7.27 | 6.67 | 7.39 | 6.26 | 
27 | ALNIALVAV |  |  |  |  |  |  | pIC50 (HLA-A*02:01 [2]; [6]): 7.10; pIC50 (HLA-A*02:02; [6]): 7.82; pIC50 (HLA-A*68:02; [6]): 5.48; pIC50 (HLA-A*02:06; [6]): 6.43; pIC50 (HLA-A*02:03; [6]): 8.35
28 | AISYCRAFI |  | 7.77 | 7.01 | 6.84 | 6.83 | 6.77 | 
29 | HLFTSMFSL |  |  |  |  |  |  | pIC50 (HLA-A*02:01 [2]; [4]): 7.31; pIC50 (HLA-A*02:02; [4]): 8.28; pIC50 (HLA-A*68:02; [4]): 6.74; pIC50 (HLA-A*02:06; [4]): 6.20; pIC50 (HLA-A*02:03; [4]): 6.98
30 | TLDAANHSI |  |  |  |  |  |  | pIC50 (HLA-A*02:01 [2]; source organism: SARS-CoV1): 8.02; pIC50 (HLA-A*02:02; source organism: SARS-CoV1): 7.04; pIC50 (HLA-A*68:02; source organism: SARS-CoV1): 5.99; pIC50 (HLA-A*02:06; source organism: SARS-CoV1): 7.54; pIC50 (HLA-A*02:03; source organism: SARS-CoV1): 6.55
31 | SLCSCICTV |  |  |  |  |  |  | pIC50 (HLA-A*02:01 [2]; source organism: SARS-CoV1): 8.49; pIC50 (HLA-A*02:02; source organism: SARS-CoV1): 8.40; pIC50 (HLA-A*68:02; source organism: SARS-CoV1): 5.78; pIC50 (HLA-A*02:06; source organism: SARS-CoV1): 8.24; pIC50 (HLA-A*02:03; source organism: SARS-CoV1): 8.38
32 | ILMTHFFSIL |  |  |  |  |  |  | pIC50 (HLA-A*02:01 [2]; [4]): 7.36; pIC50 (HLA-A*02:02; [4]): 7.46; pIC50 (HLA-A*68:02; [4]): 5.40; pIC50 (HLA-A*02:06; [4]): 7.00; pIC50 (HLA-A*02:03; [4]): 7.16
33 | IINSVSIILA |  | 6.14 | 6.81 | 6.02 | 6.05 | 6.05 | 
34 | CVDHPFIYV |  | 6.52 | 8.29 | 6.83 | 5.85 | 6.26 | 
